# From paper PMC4489650, “Aurora-A-Dependent Control of TACC3 Influences the Rate of Mitotic Spindle Assembly” (PLoS Genetics, 2015)
# Where a chain is given by its changes, count along the chain named. Names and notes keep the numbering of the source.
# B1: TACC3act (human TACC3 residues 519–563) (domain or fragment, UniProt Q9Y6A5 519-563, looked up)
# chain: ELKEESFRDPAEVLGTGAEVDYLEQFGTSSFKESALRKQSLYLKF
# notes: also called ^15N-labelled TACC3act; source: recombinant, expressed from pETM6T1, purified (SEC); 15N- or 15N/13C-labelled for NMR
# B2: GST-AurA-DN (GST fused to Aurora-A catalytic domain 122–403 D274N) (domain or fragment, UniProt O14965 122-403, looked up)
# chain: ESKKRQWALEDFEIGRPLGKGKFGNVYLAREKQSKFILALKVLFKAQLEKAGVEHQLRREVEIQSHLRHPNILRLYGYFHDATRVYLILEYAPLGTVYRELQKLSKFDEQRTATYITELANALSYCHSKRVIHRDIKPENLLLGSAGELKIANFGWSVHAPSSRRTTLCGTLDYLPPEMIEGRMHDEKVDLWSLGVLCYEFLVGKPPFEANTYQETYKRISRVEFTFPDFVTEGARDLISRLLKHNPSQRPMLREVLEHPWITANSSKPSNCQNKESASKQS
# notes: also called GST-Aurora-A; source: recombinant, expressed from pGEX-cs, purified (Gluthathione Sepharose 4B, SEC); not shown: GST, N-terminal, kept
# B3: TACC3act-H6c (human TACC3 residues 519–563 with a C-terminal His-tag) (domain or fragment, UniProt Q9Y6A5 519-563, looked up)
# chain: B1 chain
# notes: also called TACC3act-H6c WT; WT TACC3act; source: recombinant, construct made by the same method as TACC3-H6c, purified; not shown: His6, C-terminal, kept
# B4: TACC3act-H6c F525A (domain or fragment, human, UniProt Q9Y6A5 519-563, looked up)
# chain: B1 chain with F7A
# notes: also called F525A mutant; source: recombinant, purified; not shown: His6, C-terminal, kept
# Legend:
# AurA-DN C290A, C393A = target: T1, AurA-DN C290A, C393A (UniProt O14965 122-403, D274N | C290A | C393A); experiment: SEC; AurA-DN C290A, C393A, TPX2^1-43 and TACC3act alone and in complex on a HiLoad Superdex 200 16/60 column; fractions analysed by SDS-PAGE; conditions: both partners purified
# T1 construct: also called Aurora-A kinase domain (SEC); source: recombinant, purified; not further stated
# T1 sequence (looked up): B2 chain with C169A, C272A
# [1] = target: T2, AurA-DN (unphosphorylated Aurora-A 122–403 D274N) (UniProt O14965 122-403, D274N); experiment: NMR; residue pair 520/521
# T2 sequence: B2 chain
# [2] = target: T3, complex of AurA-DN/TPX2^1-43 (UniProt O14965 122-403; Q9ULW0 1-43, D274N); experiment: NMR; residue pair 519/520, with TPX2 1-43
# [3] = target: T4, complex of AurA-DN/TPX2^1-43 (UniProt O14965 122-403; Q9ULW0 1-43, D274N); experiment: NMR titration; 15N-labelled TACC3act (75 uM constant in titrations) with unlabelled AurA-DN or the AurA-DN/TPX2^1-43 complex at 0-225 uM; 1H-15N HSQC; 20 mM potassium phosphate pH 7.0, 50 mM NaCl, 1 mM DTT, 0.02% sodium azide, 5 mM ADP/MgCl2; chemical shift changes fit to Eq 1; conditions: both partners purified
# T4 construct: TPX2, first 43 amino acids; Added as a complex in the NMR titration; source: mixed from the purified recombinant proteins m8 and m12
# T4 sequence (looked up) 1: B2 chain
# T4 sequence (looked up) 2: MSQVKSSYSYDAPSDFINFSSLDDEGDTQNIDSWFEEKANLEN
# [4] = target: T5, AurA-DN (unphosphorylated Aurora-A 122–403 D274N) (UniProt O14965 122-403, D274N); experiment: as above; conditions: both partners purified
# T5 construct: source: recombinant, expressed from pET30TEV, purified (Chelating Sepharose, SEC), dialysed into NMR buffer with 5 mM ADP/MgCl2
# T5 sequence (looked up): B2 chain
# [5] = target: T3, complex of AurA-DN/TPX2^1-43; experiment: NMR; residue pair 520/521, with TPX2 1-43
# [6] = target: T6, TACC3-H6c (full-length human TACC3 with a C-terminal non-cleavable His-tag) (human, UniProt Q9Y6A5 1-838); experiment: pull-down; GST co-precipitation: 100 ug GST-AurA-DN (2 uM in the TPX2 gradient experiment, with 5 uM TACC3act-H6c and 1-50 uM His6-TPX2^1-43) immobilised on Gluthathione Sepharose 4B; 100 ug TACC3 or TPX2^1-43 added, 2 hrs at 4 C; 50 mM Tris pH 7.5, 150 mM NaCl, 5 mM MgCl2, 5 mM beta-mercaptoethanol, 0.02% TWEEN 20; SDS-PAGE and anti-His6 blot; conditions: both partners purified
# T6 construct: TACC3, human, full length; also called full-length TACC3; TACC3-H6c WT; source: recombinant, expressed from pET-44C3, purified; not shown: His6, C-terminal, kept
# [7] = target: T7, TACC3-H6c phospho-mimic mutant (SE: S34, S552 and S558 mutated to glutamic acid) (human, UniProt Q9Y6A5 1-838, S34 to glutamic acid | S552 to glutamic acid | S558 to glutamic acid); experiment: as above; conditions: both partners purified
# T7 construct: TACC3, human, full length, three Aurora-A phosphorylation sites mutated to glutamic acid; source: recombinant, expressed from pET-44C3, purified; not shown: His6, C-terminal, kept
# [8] = target: T8, TACC3-H6c phospho-null mutant (SA: S34A, S552A, S558A) (human, UniProt Q9Y6A5 1-838, S34A | S552A | S558A); experiment: as above; conditions: both partners purified
# T8 construct: TACC3, human, full length, three Aurora-A phosphorylation sites mutated to alanine; source: recombinant, expressed from pET-44C3, purified; not shown: His6, C-terminal, kept
# [9] = target: T9, Aurora-A 122–403 C290A, C393A (UniProt O14965 122-403, C290A | C393A, labelled with NT-647-NHS dye); experiment: MST; 50 nM NT-647-labelled Aurora-A 122-403 C290A, C393A; TACC3act-H6c constructs 0.2-3950 uM; 50 mM Tris pH 7.6, 150 mM NaCl, 10 mM MgCl2, 5 mM beta-mercaptoethanol, 0.05% TWEEN 20; 25 C; one-site fit (Eq 2); conditions: both partners purified
# T9 construct: also called labelled Aurora-A; source: recombinant, expressed from pET30TEV, purified (Chelating Sepharose, SEC)
# T9 sequence (looked up): B2 chain with N153D, C169A, C272A
binder,measurement,setting,value
B1,binding result,"AurA-DN C290A, C393A",binds
same,Kd,[1],7.5 µM
same,Kd,[2],0.6 µM
same,Kd,[3],1.1 ± 1.2 µM
same,Kd,[4],8.2 ± 0.8 µM
same,Kd,[5],1.6 µM
B2,binding result,[6],binds
same,binding result,[7],binds
same,binding result,[8],binds
B3,Kd,[9],5.7 ± 0.4 µM
B4,Kd,[9],152 ± 9.3 µM
